Assay results: patent publication US20200262877A1, “ION CHANNEL-BINDING PEPTIDES AND METHODS OF USE THEREOF” (priority 2017, published 2020)
Values joined by “and” are separate entries in the source; they are usually repeats but may differ in a detail not shown here. Identical values can stand only once. Counter-ions that a name gives are not always drawn.

Key:
Cav2.1 = target: T1, Cav2.1 (Homo sapiens, UniProt O00555); experiment: cell-based
T1 construct: host or cells: HEK293 or CHO
Experimental: (§1) This example describes a method for assaying ion channel activity in cells.
(§2) Peptides were screened in duplicate at final concentrations of 20 μM and 200 nM, as determined by amino acid analysis, and diluted into HEPES buffered physiological saline (HBPS). HEK293 or CHO cells from the American Type Culture Collection (ATCC) were transfected with the appropriate ion channel before use. HEK293 cells were grown in Dulbecco's Modified Eagle Medium/Nutrient Mixture F-12, and CHO cells were cultured in Ham's F-12 media. All cultures were supplemented with 10% fetal bovine serum, 100 U/ml penicillin G, 100 μg/ml streptomycin sulfate, and the appropriate selection antibiotics. Prior to use, cells were washed twice with Hank's Balanced Salt Solution, and treated with Accutase cell detachment solution (Sigma-Aldrich). Cells were then washed. Peptides and controls were incubated with cells for at least five minutes.
(§3) Percent inhibition was defined as: (1-(Ipeptide/Icontrol))×100%).
(§4) Percent values were calculated using the following formula: % activation=(IPeptide/Icontrol)×100%, where IPeptide is the current produced by co-application a peptide with agonist, and Icontrol refers to the current produced by stimulation in control. Control used for each ion channel is the reference compound matched to a particular channel, as illustrated in TABLE 10 below.

Kv2.1 = target: T2, Kv2.1 (Homo sapiens, UniProt Q14721); experiment: cell-based
T2 construct: host or cells: HEK293 or CHO
T2 sequence (Q14721 whole entry): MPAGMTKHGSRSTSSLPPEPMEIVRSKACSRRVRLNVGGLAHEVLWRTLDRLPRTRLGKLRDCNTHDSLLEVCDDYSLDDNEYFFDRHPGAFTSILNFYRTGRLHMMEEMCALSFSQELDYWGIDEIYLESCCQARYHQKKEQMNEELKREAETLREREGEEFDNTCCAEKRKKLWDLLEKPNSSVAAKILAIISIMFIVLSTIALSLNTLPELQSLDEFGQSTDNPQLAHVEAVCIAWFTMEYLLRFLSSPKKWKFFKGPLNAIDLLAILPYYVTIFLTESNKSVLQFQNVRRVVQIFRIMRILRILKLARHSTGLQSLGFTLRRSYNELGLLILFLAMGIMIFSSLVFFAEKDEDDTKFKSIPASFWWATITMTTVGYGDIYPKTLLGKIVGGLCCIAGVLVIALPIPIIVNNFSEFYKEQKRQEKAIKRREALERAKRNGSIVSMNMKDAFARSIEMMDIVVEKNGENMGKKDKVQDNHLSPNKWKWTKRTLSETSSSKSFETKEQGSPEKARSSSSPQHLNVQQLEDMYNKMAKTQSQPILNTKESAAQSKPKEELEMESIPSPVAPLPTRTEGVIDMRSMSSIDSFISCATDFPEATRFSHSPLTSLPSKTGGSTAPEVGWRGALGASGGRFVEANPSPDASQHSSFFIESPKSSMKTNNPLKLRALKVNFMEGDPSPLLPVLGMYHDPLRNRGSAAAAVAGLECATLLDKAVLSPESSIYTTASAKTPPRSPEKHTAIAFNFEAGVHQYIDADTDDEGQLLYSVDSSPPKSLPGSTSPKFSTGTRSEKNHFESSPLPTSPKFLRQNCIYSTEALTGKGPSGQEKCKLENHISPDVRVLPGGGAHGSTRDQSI
Experimental: as §1, §2, §3, §4

Cav2.2 = target: T3, Cav2.2 (Homo sapiens, UniProt Q00975); experiment: cell-based
T3 construct: host or cells: HEK293 or CHO
Experimental: as §1, §2, §3, §4

Nav1.5 = Nav1.5 (Homo sapiens, UniProt Q14524); experiment: in vitro; conditions: 100% = no change; for Activity of Nav1.5 with peptide, expressed as a percentage of the reference compound: peptide at 0.2 μM; for Activity of Nav1.5 with peptide (percentage of the reference compound): peptide at 20 μM
Experimental: as §1, §2, §3, §4

hERG = hERG (Homo sapiens, UniProt Q12809); experiment: in vitro; conditions: 100% = no change, <100% = inhibition
Experimental: as §1, §2, §3, §4

α3β4 = target: T4, α3β4 (Homo sapiens, UniProt P30926+P32297); experiment: Ion channel panel (IonWorks Barracuda): α3β4; format: cell-based; conditions: 100% = no change, <100% = inhibition
T4 construct: host or cells: HEK293 or CHO
Experimental: as §1, §2, §3, §4

5HT3a = target: T5, 5HT3a (Homo sapiens, UniProt P46098); experiment: Ion channel panel (IonWorks Barracuda): 5HT3a; format: cell-based
T5 construct: host or cells: HEK293 or CHO
T5 sequence (P46098 whole entry, looked up): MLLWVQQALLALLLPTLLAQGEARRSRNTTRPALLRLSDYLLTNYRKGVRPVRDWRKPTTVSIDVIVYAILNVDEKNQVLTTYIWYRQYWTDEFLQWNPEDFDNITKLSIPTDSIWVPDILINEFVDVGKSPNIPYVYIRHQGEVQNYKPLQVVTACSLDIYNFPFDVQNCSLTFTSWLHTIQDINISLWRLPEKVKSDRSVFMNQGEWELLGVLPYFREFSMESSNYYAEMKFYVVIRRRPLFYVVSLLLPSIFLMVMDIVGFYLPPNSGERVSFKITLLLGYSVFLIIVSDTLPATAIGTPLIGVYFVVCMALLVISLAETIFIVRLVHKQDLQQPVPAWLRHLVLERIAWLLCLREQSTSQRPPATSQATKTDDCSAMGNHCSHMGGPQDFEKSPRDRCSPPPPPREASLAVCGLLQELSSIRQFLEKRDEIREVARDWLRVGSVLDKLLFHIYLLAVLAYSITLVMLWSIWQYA
Experimental: as §1, §2, §3, §4

TRPV1 = target: T6, TRPV1 (Homo sapiens, UniProt Q8NER1); experiment: Ion channel panel (IonWorks Barracuda): TRPV1; format: cell-based
T6 construct: host or cells: HEK293 or CHO
Experimental: as §1, §2, §3, §4

α4β2 = target: T7, α4β2 (Homo sapiens, UniProt P17787+P43681); experiment: Ion channel panel (IonWorks Barracuda): α4β2; format: cell-based
T7 construct: host or cells: HEK293 or CHO
Experimental: as §1, §2, §3, §4

NR2B = target: T8, NR2B (Homo sapiens, UniProt Q13224); experiment: Ion channel panel (IonWorks Barracuda): NR2B; format: cell-based; conditions: 100% = no change, <100% = inhibition
T8 construct: host or cells: HEK293 or CHO
Experimental: as §1, §2, §3, §4

Kir2.1 = target: T9, Kir2.1 (Homo sapiens, UniProt P63252); experiment: Ion channel panel (IonWorks Barracuda): Kir2.1; format: cell-based
T9 construct: host or cells: HEK293 or CHO
Experimental: as §1, §2, §3, §4

TRPA1 = target: T10, TRPA1 (Homo sapiens, UniProt O75762); experiment: Ion channel panel (IonWorks Barracuda): TRPA1; format: cell-based; conditions: 100% = no change, <100% = inhibition
T10 construct: host or cells: HEK293 or CHO
Experimental: as §1, §2, §3, §4

NR2A = target: T11, NR2A (Homo sapiens, UniProt Q12879); experiment: Ion channel panel (IonWorks Barracuda): NR2A; format: cell-based; conditions: 100% = no change, <100% = inhibition
T11 construct: host or cells: HEK293 or CHO
Experimental: as §1, §2, §3, §4

Nav1.7 = target: T12, Nav1.7 (Homo sapiens, UniProt Q15858); experiment: cell-based; format: cell-based; conditions: for Activity of Nav1.7 with peptide, expressed as a percentage of the reference compound: peptide at 0.2 μM; for Activity of Nav1.7 with peptide, expressed as a percentage of the reference compound / Activity of Nav1.7 with peptide (percentage of the reference compound): 100% = no change; for Activity of Nav1.7 with peptide (percentage of the reference compound): peptide at 20 μM
T12 construct: host or cells: HEK293 or CHO
Experimental: as §1
as §2, with “Peptides were screened in duplicate at final concentrations of 20 μM and 200 nM, as determined by amino acid analysis, and diluted into HEPES buffered physiological saline (HBPS).” left out
as §3, §4

GABA = experiment: Ion channel panel (IonWorks Barracuda): GABA; format: cell-based
Experimental: as §1, §2, §3, §4

Kv1.1 = target: T13, Kv1.1 (Homo sapiens, UniProt Q09470); experiment: cell-based; format: cell-based; conditions: 100% = no change, <100% = inhibition
T13 construct: host or cells: HEK293 or CHO
Experimental: as §1, §2, §3, §4

Kv1.2 = target: T14, Kv1.2 (Homo sapiens, UniProt P16389); experiment: cell-based; format: cell-based; conditions: 100% = no change, <100% = inhibition
T14 construct: host or cells: HEK293 or CHO
Experimental: as §1, §2, §3, §4

Kv1.3 = target: T15, Kv1.3 (Homo sapiens, UniProt P22001); experiment: cell-based; format: cell-based; conditions: for Kv1.3 inhibition: 0.2 or 20 μM, FIG. 2
T15 construct: host or cells: HEK293 or CHO
T15 sequence (P22001 whole entry): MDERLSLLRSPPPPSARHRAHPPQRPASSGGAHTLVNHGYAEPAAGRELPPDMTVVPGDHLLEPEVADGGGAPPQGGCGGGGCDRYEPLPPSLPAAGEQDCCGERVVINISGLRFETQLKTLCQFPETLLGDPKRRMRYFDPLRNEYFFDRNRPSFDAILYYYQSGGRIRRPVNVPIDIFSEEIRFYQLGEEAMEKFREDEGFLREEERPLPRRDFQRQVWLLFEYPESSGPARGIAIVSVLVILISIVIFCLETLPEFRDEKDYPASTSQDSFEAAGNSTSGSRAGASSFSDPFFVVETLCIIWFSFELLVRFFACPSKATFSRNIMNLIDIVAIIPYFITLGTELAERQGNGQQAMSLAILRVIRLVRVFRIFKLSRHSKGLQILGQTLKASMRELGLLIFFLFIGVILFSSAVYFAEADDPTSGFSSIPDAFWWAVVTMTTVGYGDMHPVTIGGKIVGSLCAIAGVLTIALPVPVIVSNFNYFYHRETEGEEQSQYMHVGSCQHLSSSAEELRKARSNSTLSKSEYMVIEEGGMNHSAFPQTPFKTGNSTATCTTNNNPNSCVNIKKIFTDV
Experimental: as §1, §2, §3, §4

[1] = peptide at 0.2 μM, 100% = no change, <100% = inhibition
[2] = peptide at 20 μM, 100% = no change, <100% = inhibition
[3] = first of two Nav1.5 columns (probably TP1)
[4] = second of two Nav1.5 columns (probably TP2)
[5] = first of two Nav1.7 columns (probably TP1)
[6] = second of two Nav1.7 columns (probably TP2)

T1 sequence (P54289 25-1103): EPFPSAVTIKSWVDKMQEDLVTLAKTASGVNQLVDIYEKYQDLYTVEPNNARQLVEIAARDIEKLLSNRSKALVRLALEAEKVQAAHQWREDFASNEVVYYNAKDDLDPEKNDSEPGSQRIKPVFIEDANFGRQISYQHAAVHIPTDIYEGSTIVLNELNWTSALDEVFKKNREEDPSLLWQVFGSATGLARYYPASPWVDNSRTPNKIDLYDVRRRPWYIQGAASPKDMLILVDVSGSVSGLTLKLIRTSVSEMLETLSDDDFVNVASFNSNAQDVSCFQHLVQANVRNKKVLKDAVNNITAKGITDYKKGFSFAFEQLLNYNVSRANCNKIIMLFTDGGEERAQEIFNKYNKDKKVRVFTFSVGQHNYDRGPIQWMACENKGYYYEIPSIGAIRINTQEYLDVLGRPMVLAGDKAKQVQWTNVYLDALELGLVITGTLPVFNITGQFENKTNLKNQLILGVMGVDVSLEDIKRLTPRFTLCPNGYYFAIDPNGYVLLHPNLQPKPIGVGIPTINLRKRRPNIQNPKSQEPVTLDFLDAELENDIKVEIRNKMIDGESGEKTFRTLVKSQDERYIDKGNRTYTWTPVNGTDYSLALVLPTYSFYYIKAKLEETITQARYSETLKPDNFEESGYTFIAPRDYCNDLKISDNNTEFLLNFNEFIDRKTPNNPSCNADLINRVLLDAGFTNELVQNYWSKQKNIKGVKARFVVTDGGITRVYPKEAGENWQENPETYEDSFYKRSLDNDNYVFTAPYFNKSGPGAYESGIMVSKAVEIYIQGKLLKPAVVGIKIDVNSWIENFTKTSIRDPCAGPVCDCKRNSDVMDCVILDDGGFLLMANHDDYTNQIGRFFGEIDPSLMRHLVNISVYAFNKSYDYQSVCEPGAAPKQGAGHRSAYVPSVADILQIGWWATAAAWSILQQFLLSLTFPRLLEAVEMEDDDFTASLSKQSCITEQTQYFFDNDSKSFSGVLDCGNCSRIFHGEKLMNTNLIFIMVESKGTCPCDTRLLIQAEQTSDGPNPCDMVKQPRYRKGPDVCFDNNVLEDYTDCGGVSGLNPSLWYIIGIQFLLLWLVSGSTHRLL
T1 sequence (O00555 whole entry): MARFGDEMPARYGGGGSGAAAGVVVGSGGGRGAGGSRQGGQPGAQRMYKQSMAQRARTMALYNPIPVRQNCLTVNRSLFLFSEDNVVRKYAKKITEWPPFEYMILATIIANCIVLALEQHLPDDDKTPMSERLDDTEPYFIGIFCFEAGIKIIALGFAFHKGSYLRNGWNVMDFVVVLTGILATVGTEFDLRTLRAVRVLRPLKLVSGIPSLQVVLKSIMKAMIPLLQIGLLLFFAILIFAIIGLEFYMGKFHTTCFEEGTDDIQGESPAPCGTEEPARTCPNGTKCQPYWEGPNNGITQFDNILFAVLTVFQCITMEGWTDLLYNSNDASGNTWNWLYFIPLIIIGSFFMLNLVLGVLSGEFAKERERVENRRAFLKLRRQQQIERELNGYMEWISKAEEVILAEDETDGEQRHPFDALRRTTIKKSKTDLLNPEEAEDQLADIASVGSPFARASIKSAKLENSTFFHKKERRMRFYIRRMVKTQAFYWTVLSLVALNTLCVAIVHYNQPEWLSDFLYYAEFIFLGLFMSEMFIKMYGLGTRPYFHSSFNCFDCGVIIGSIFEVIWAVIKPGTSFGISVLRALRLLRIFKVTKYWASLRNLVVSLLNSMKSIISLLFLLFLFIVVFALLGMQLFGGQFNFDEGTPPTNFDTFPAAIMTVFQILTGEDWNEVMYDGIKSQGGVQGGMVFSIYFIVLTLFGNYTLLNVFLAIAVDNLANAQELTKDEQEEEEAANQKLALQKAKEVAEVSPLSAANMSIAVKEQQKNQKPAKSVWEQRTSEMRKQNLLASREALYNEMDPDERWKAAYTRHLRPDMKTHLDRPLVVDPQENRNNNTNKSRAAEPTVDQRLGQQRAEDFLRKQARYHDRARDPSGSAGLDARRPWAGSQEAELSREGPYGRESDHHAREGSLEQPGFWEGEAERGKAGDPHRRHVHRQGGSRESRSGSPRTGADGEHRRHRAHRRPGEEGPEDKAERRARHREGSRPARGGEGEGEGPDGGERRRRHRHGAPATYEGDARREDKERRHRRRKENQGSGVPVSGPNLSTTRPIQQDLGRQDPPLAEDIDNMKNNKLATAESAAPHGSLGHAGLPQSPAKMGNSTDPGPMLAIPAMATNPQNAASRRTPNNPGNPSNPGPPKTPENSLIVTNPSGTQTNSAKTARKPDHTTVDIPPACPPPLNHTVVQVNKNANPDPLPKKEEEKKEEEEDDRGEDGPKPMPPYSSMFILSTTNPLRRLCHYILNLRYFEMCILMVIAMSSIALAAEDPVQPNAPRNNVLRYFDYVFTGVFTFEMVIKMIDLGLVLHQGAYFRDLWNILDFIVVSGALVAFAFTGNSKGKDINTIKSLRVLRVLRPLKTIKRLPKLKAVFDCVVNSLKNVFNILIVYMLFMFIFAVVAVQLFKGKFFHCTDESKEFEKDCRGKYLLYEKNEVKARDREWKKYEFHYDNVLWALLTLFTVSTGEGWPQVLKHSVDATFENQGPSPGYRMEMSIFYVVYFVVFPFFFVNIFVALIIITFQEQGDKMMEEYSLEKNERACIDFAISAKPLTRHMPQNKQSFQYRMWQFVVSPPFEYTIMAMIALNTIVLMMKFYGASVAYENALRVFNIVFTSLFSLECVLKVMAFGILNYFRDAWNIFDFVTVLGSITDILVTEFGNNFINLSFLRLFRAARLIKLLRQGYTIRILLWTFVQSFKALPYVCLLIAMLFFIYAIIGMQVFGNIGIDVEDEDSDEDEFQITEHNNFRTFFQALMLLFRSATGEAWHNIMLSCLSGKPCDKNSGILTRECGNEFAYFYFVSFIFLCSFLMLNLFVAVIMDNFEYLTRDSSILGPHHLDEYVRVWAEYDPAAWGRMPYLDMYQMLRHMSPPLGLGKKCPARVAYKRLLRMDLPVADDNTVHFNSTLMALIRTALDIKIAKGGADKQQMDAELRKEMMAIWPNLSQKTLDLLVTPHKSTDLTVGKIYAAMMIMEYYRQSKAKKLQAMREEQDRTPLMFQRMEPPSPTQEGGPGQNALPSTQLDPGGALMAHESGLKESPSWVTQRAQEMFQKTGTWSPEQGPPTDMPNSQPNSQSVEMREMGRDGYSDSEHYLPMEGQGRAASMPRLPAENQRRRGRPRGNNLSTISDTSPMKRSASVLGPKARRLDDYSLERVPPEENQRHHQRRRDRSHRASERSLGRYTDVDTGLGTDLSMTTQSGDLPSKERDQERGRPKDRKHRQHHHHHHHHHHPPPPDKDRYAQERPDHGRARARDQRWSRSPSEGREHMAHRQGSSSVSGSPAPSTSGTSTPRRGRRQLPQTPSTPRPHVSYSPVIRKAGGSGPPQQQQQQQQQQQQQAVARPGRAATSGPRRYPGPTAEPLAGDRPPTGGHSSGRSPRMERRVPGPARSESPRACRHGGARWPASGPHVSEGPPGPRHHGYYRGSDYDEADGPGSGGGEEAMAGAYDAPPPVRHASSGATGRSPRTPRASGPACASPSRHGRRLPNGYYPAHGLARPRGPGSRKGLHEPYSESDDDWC

2 (GSEVIRCSGSKQCYGPCKQQTGCTNSKCMNKVCKCYGCG) [compound 2]
Activity of Cav2.1 with peptide, expressed as a percentage of the reference compound (Cav2.1; [1]): 103% | Activity of Cav2.1 with peptide (percentage of the reference compound) (Cav2.1; [2]): 108% | Activity of Kv2.1 with peptide, expressed as a percentage of the reference compound (Kv2.1; [1]): 80% | Activity of Kv2.1 with peptide (percentage of the reference compound) (Kv2.1; [2]): 87% | Activity of Cav2.2 with peptide, expressed as a percentage of the reference compound (Cav2.2; [1]): 104% | Activity of Cav2.2 with peptide (percentage of the reference compound) (Cav2.2; [2]): 104% | Activity of Nav1.5 with peptide, expressed as a percentage of the reference compound (Nav1.5; [3]): 95% | Activity of Nav1.5 with peptide, expressed as a percentage of the reference compound (Nav1.5; [4]): 93% | Activity of Nav1.5 with peptide (percentage of the reference compound) (Nav1.5; [3]): 102% | Activity of Nav1.5 with peptide (percentage of the reference compound) (Nav1.5; [4]): 101% | Activity of hERG with peptide, expressed as a percentage of the reference compound (hERG; peptide at 0.2 μM): 97% | Activity of hERG with peptide (percentage of the reference compound) (hERG; peptide at 20 μM): 76% | Activity of a3b4 with peptide, expressed as a percentage of the reference compound (α3β4; peptide at 0.2 μM): 85% | Activity of a3b4 with peptide (percentage of the reference compound) (α3β4; peptide at 20 μM): 88% | Activity of 5HT3a with peptide (percentage of the reference compound) (5HT3a): 88% | Activity of 5HT3a with peptide, expressed as a percentage of the reference compound (5HT3a): 92% | Activity of TRPV1 with peptide, expressed as a percentage of the reference compound (TRPV1; [1]): 95% | Activity of TRPV1 with peptide (percentage of the reference compound) (TRPV1; [2]): 81% | Activity of a4b2 with peptide, expressed as a percentage of the reference compound (α4β2; [1]): 95% | Activity of a4b2 with peptide (percentage of the reference compound) (α4β2; [2]): 87% | Activity of NR2B with peptide, expressed as a percentage of the reference compound (NR2B; peptide at 0.2 μM): 118% | Activity of NR2B with peptide (percentage of the reference compound) (NR2B; peptide at 20 μM): 72% | Activity of Kir2.1 with peptide, expressed as a percentage of the reference compound (Kir2.1; [1]): 101% | Activity of Kir2.1 with peptide (percentage of the reference compound) (Kir2.1; [2]): 89% | Activity of TRPA1 with peptide, expressed as a percentage of the reference compound (TRPA1; peptide at 0.2 μM): 106% | Activity of TRPA1 with peptide (percentage of the reference compound) (TRPA1; peptide at 20 μM): 92% | Activity of NR2A with peptide, expressed as a percentage of the reference compound (NR2A; peptide at 0.2 μM): 102% | Activity of NR2A with peptide (percentage of the reference compound) (NR2A; peptide at 20 μM): 95% | Activity of Nav1.7 with peptide, expressed as a percentage of the reference compound (Nav1.7; [5]): 89% | Activity of Nav1.7 with peptide, expressed as a percentage of the reference compound (Nav1.7; [6]): 74% | Activity of Nav1.7 with peptide (percentage of the reference compound) (Nav1.7; [5]): 61% | Activity of Nav1.7 with peptide (percentage of the reference compound) (Nav1.7; [6]): 91% | Activity of GABA with peptide, expressed as a percentage of the reference compound (GABA; [1]): 104% | Activity of GABA with peptide (percentage of the reference compound) (GABA; [2]): 97% | Activity of Kv1.1 with peptide, expressed as a percentage of the reference compound (Kv1.1; peptide at 0.2 μM): 114% | Activity of Kv1.1 with peptide (percentage of the reference compound) (Kv1.1; peptide at 20 μM): 68% | Activity of Kv1.2 with peptide, expressed as a percentage of the reference compound (Kv1.2; peptide at 0.2 μM): 34% | Activity of Kv1.2 with peptide (percentage of the reference compound) (Kv1.2; peptide at 20 μM): 39% | Activity of Kv1.3 with peptide, expressed as a percentage of the reference compound (Kv1.3; [1]): 8% | Activity of Kv1.3 with peptide (percentage of the reference compound) (Kv1.3; [2]): 1%

[Ba+2].[Cl-].[Cl-] [BaCl2, reference compound]
IC50 (Kir2.1; Kir2.1, read-out: IC50 of receptor/channel inhibition with reference compound): 5.25 µM

Oc1cc2c(cc1O)CN(C(=S)NCCc1ccc(Cl)cc1)CCC2 [Capsazepine, reference compound]
IC50 (TRPV1): 0.09 µM

CCN(CC)CC(=O)Nc1c(C)cccc1C [Lidocaine, reference compound]
IC50 (Nav1.7; IC50 of receptor/channel inhibition with reference compound): 465 µM and 285 µM

CNC1(C)C2CCC(C2)C1(C)C (stereo not drawn) [Mecamylamine, reference compound]
IC50 (α4β2; α4β2, read-out: IC50 of receptor/channel inhibition with reference compound): 1.14 µM

COCC(=O)O[C@]1(CCN(C)CCCc2nc3ccccc3[nH]2)CCc2cc(F)ccc2[C@@H]1C(C)C [Mibefradil dihydrochloride, reference compound]
IC50 (Cav2.1; Cav2.1, read-out: IC50 of receptor/channel inhibition with reference compound): 2.12 µM | IC50 (Cav2.2; Cav2.2, read-out: IC50 of receptor/channel inhibition with reference compound): 8.28 µM

COc1ccc(CCN(C)CCCC(C#N)(c2ccc(OC)c(OC)c2)C(C)C)cc1OC (stereo not drawn) [Verapamil, reference compound]
IC50 (Kv2.1): 78 µM

GSECLEIFKACNPSNDQCCKSSKLVCSRKTRWCKYQIG [SEQ ID NO: 31]
Activity against Nav1.7 channels (Nav1.7; 0.2 or 20 μM, FIG. 2): showed activity on tetrodotoxin-sensitive sodium channels (e.g., Nav1.7)

GSGVPTDVKCRGSPQCIQPCKDAGMRFGKCMNGKCHCTPK [SEQ ID NO: 39]
Kv1.3 inhibition (Kv1.3): showed strong Kv1.3 inhibition

GSQFTDVKCTGSKQCWPVCKQMFGKPNGKCMNGKCRCYS [SEQ ID NO: 19]
Kv1.3 inhibition (Kv1.3): showed strong Kv1.3 inhibition

Picrotoxin [reference compound]
IC50 (GABA; GABA, read-out: IC50 of receptor/channel inhibition with reference compound): 1.72 µM
